We go through one molecule from patent publication US20130156764A1, “NEUTRALIZATION OF FLT3 LIGAND AS A LEUKEMIA THERAPY” (The Johns Hopkins University, priority 2010, published 2013).

For assay [1], the system named is FLT3 (wt, ITD, TKD) in FL−/− MEF cells. Briefly: FL stimulation, FLT3 phosphorylation in FL−/− MEF cells expressing wtFLT3, FLT3/ITD, FLT3/TKD. In kind it is cell-based, mice. How it is done: Embryos were removed from female FL^−/− mice (purchased from Taconic, Hudson, N.Y.) on day 13 or 14 of pregnancy. Internal organs and heads were removed. The remainder of the embryos were washed, minced, digested with Trypsin/EDTA, and then resuspended in DMEM containing 10% FBS followed by centrifuging at 1000×g for 5 minutes. The cell pellet was resuspended in DMEM containing 10% FBS and cultured at 37° C. with 5% CO2. After 3 passages, the cells were transfected with CMV-SV40-large T antigen to immortalize FL^−/− MEF cells. The FL^−/− MEF cells represent bulk cells after transformation.
Retrovirus was obtained by harvesting supernatant 48 hours after transfection of 293T cells with pBabePuro constructs. […]
To eliminate the complicating factor of autocrine, paracrine, and intracrine FL expression on mutant FLT3 activation, FL^−/− MEF cells were established from FL^−/− mice. […] The addition of FL induced more than a 4-fold increase in FLT3 phosphorylation in FL^−/− MEF-FLT3, FL^−/− MEF-ITD, and FL^−/− MEF-TKD cells (quantitated by GS-800 Calibrated Densitometer (Bio-Rad) and Quantity One software (Bio-Rad)) (FIG. 10B, lanes 4, 6, and 8 versus lanes 3, 5, and 7). […]
The effect of endogenous FL expression on the activation of FLT3/ITD and FLT3/TKD mutant receptors were next examined. […] The expression of FL was assessed by the detection of the secreted form of FL in the cell culture supernatant. […]

The subject of assay [2] is TF1/ITD and TF1/TKD cells. Briefly: Apoptosis (Annexin V/7AAD) and survival of TF1/ITD and TF1/TKD cells with FL. It counts as cell-based. As to conditions: for survival (viable cell numbers): serum free medium; for apoptotic population: serum-free, 48 hours, presence of FL. How it is done:
Evaluation of apoptosis was performed by annexin V/7-AAD staining according to the recommendations of the manufacturer (Becton Dickinson, San Jose, Calif.). After serum starvation, 5×10^5 cells were washed with cold PBS and re-suspended in 100 μL of binding buffer. Following incubation with 5 μL of annexin V-PE and 5 μL of 7-AAD in the dark for 15 minutes at room temperature, cells were analyzed by flow cytometry (FACSort, Becton Dickinson) with Cell Quest software (Becton Dickinson). Compensation was performed with samples stained with either annexin V-PE or 7-AAD alone.
(§1) 2×10^4 cells in 100 μl serum-free medium were plated into triplicate wells of 96-well plates. Survival was assessed by MTT assay (Roche, Indianapolis, Ind.) and viable cell number counting by trypan blue (GIBCO, Rockville, Md.) exclusion according to the manufacturer's instructions.
The possibility of further activation of FLT3 mutant receptors by exogenous FL was also tested in cell lines in which FL autocrine, paracrine, or intracrine stimulation of FLT3 receptor might exist. […] TF1 cells expressing FLT3 mutant receptors were starved for 16 hours in serum-free medium and washed once with PBS to deplete soluble FL (either produced by the cells or contained in the serum). These cells were then stimulated with exogenous FL for 15 minutes. More than 2-fold enhancement of FLT3 phosphorylation was detected in both TF1/ITD and TF1/TKD cell lines (FIG. 12A). […] To assess the functional effect of exogenous FL, TF1/ITD and TF1/TKD cells were cultured in serum-free medium in the absence and presence of FL for 48 hours. Apoptosis was assessed by Annexin V and 7AAD staining followed by FACS analysis. […] There was no change of cell cycle status in response to FL in these cells (data not shown).

Assay [3] has as its system primary AML blasts expressing homozygous FLT3/ITD mutations. Briefly: Survival (MTT) of primary AML blasts with FL. The note with it: complete medium, 4 days. In kind it is cell-based, human. As for the experimental part:
as §1
To study whether further activation of mutant FLT3 receptors in response to FL also occurs in primary cells, experiments were carried on primary AML blasts expressing homozygous FLT3/ITD mutations (i.e., no detectable wild type FLT3 by PCR). The blasts were stimulated with 100 ng/mL FL. […] The survival of AML blasts was assessed by culturing them in complete medium with and without FL for 4 days.

For assay [4], the system named is BaF3/ITD and BaF3/TKD cells. Description: Survival (MTT, trypan blue) of BaF3/ITD and BaF3/TKD cells with FL. In kind it is cell-based. As to conditions: serum-free, 4 days. How it is done: as §1
BaF3 is another cell line lacking expression of endogenous FLT3. BaF3 cells transfected with mutant forms of FLT3 were starved in serum-free medium for 16 hours and washed with PBS before FL stimulation. […] Changes of other FLT3 downstream signals were not observed. An MTT survival assay was performed in BaF3/ITD and BaF3/TKD cells cultured in serum-free medium in the presence and absence of FL for 4 days. […] The effect was also confirmed by counting viable cell numbers by trypan blue exclusion (FIG. 13C, P<0.05). These findings indicate that FL stimulation prolongs the survival of cells expressing FLT3 mutants.

Assay [5] has as its system STAT5 and AKT phosphorylation. Description: FL stimulation, downstream signaling in MV411 cells. In kind it is cell-based, human.

Where only a bound is given, the exact number is not on record here.

B1: FL: Recombinant human FL (fms-related tyrosine kinase ligand) purchased from PeproTech; SEQ ID NO: 1 (protein, listed as Homo sapiens)
chain: MTVLAPAWSPTTYLLLLLLLSSGLSGTQDCSFQHSPISSDFAVKIRELSDYLLQDYPVTVASNLQDEELCGGLWRLVLAQRWMERLKTVAGSKMQGLLERVNTEIHFVTKCAFQPPPSCLRFVQTNISRLLQETSEQLVALKPWITRQNFSRCLELQCQPDSSTLPPPWSPRPLEATAPTAPQPPLLLLLLLPVGLLLLAAAWCLHWQRTRRRTPRPGEQVPPVPSPQDLLLVEH
In the case of B1, in assay [1] (FL−/− MEF-FLT3, MEF-ITD and MEF-TKD cells, serum-free, FL 100 ng/mL 15 minutes), the “increase in FLT3 phosphorylation” value is recorded as more than 4 fold. For the same molecule, the “FLT3 phosphorylation in cells expressing endogenous FL” value in assay [1] (exogenous FL 100 ng/mL, MEF-FLT3, MEF-ITD, MEF-TKD cells stably expressing FL) was “did not further augment”. The “cell cycle status in response to FL” value in assay [2] (TF1/ITD and TF1/TKD) is recorded as “no change”. In assay [2] (TF1/ITD), the “survival (viable cell numbers)” value was “increased the survival” and the apoptotic population turned out to be 49.54%. In assay [2] (TF1/TKD), the “survival (viable cell numbers)” value is given as “no significant difference” and the apoptotic population is on record as 31.63%. For the same molecule, the “patient samples with increased survival of AML blasts” value in assay [3] is given as “three of four”. Moreover, the “survival (MTT, confirmed by trypan blue)” value in assay [4] is recorded as “increased survival”. The “phosphorylation of FLT3 downstream signaling, including STAT5 and AKT” value in assay [5] is “Slightly enhanced phosphorylation”.
